Measured values: patent US20100330076A1 (RESEARCH DEVELOPMENT FOUNDATION, published 2010)
Changes are numbered by the printed parent chain.

B1: Fc603 (other)
chain: DKTHTCPPCPAPELLGGPSVFLFPPKPKDTLMISRTPEVTCVVVDVSHEDPEVKFNWYVDGVEVHNAKTKPREEQYNSTYRVVSVLTVLHQDWLNGKEYKCKVSNKALPAPIEKTISKANGQPREPQVYTLPPSRDELTKNQVSLTCLVKGFYPSDIAVEWVSNGQPENNYKTTPPVLDSDGSFFLYSKLTVDKSRWQQGNVFSCSVIHEALHNHYTQKSLSLSPGK
notes: Aglycosylated Fc fragment (E. coli, pPelBFLAG), assayed on spheroplasts; not shown: C-terminal FLAG tag from pPelBFLAG
B2: Fc604 (other)
chain: B1 chain with K118I
notes: as for B1
B3: Fc605 (other)
chain: B1 chain with N120Q, A158D
notes: as for B1
B4: Fc606 (other)
chain: B1 chain with N105S
notes: as for B1
B5: Fc607 (other)
chain: B1 chain with H4Y, E49K, N105S, N120K, G121V
notes: as for B1
B6: Fc608 (other)
chain: B1 chain with N120K, G121V, K172E
notes: as for B1

Biological target: T1, extracellular domain of recombinant glycosylated FcγRIa/CD64 (R&D Systems) labeled with FITC (human, UniProt P12314 16-292, FITC-labeled; glycosylated)
T1 construct: extracellular domain; it is not restated for the bought reagent; also called FcγRIa-FITC; FcγRI-FITC
T1 sequence (P12314 16-292): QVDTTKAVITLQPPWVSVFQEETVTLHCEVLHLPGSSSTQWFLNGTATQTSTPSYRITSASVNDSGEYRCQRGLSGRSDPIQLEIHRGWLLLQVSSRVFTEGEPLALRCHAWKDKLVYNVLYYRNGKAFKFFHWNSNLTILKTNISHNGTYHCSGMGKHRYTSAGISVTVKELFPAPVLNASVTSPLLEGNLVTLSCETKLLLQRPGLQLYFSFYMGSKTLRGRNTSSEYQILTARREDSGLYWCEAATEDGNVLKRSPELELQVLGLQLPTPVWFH
Assay: flow cytometry of E. coli spheroplasts labeled with FcγRIa-FITC (summary in Example 3)

Binding result, binds:
B1
B2
B3
B4
B5
B6
